Stoichiometry N data for one substance are collected here from article PMC13438699.

In the assay the target is A/Solomon Islands/3/2006 (H1N1) HA (influenza A virus A/Solomon Islands/3/2006 (H1N1)). The experiment in a line: cryo-EM structure.

Consider “A/Solomon Islands/3/2006 (H1N1) HA (natural protein)”, for which the stoichiometry N turned out to be 3.
